Drawing on patent US20260116960A1 (SHANGHAI HONGCHENG BIOPHARMACEUTICAL, published 2026), this text covers IC50 and EC50 for two molecules.

The IC50 is the point on the concentration scale where inhibition reaches its midpoint. A high value points to weaker potency. The EC50 is the midpoint of the concentration-response curve.

Assay [1] concerns the target T1, human CTLA-4 on the cell surface (human, UniProt P16410 36-223).
T1 construct: whole, on cells; also called CHO-hCTLA-4 cells; CHOK1-hCTLA4 cells
Kind of assay: flow cytometry competition, 293T-hPD-1-hCTLA-4 cells (PD-1 co-expressed), biotin-human CD80.

Assay [2] concerns the target T2, hPD1-mFc (Acro, Catalog No. PD1-H5255) (human, UniProt Q15116 25-167).
T2 construct: Bought protein; also called human PD-1 mouse Fc fusion; not shown: mouse Fc (mFc)
Kind of assay: flow cytometry: antibody titrated on CHOK1-hCTLA4 cells, then mixture of hPD1-mFc and biotin-hVEGF165; AF647 anti-mIgG signal. Here is the method: (§1) CHOK1-hCTLA4 cells were obtained by trypsin digestion, washed twice with PBS containing 2% FBS (FACS buffer), and the cell density was adjusted to about 8×10⁵ cells/ml. 200 μL/well of the cells were added to a 96-well U-bottom plate. After centrifugation at 300 g for 5 minutes, the supernatant was discarded and 100 μL of antibody solution serially diluted with FACS buffer was added in triplicate (with starting concentration of 200 nM, 3-fold serial dilution, and the same volume of FACS buffer was used as a negative control). Mixed well and incubated at 4° C. for 60 min. After washing the plate three times with FACS buffer, a mixture consisting of 1 μg/mL hPD1-mFc (Acro, Catalog No.: PD1-H5255) and 1 μg/mL Biotin-hVEGF165 in a 1:1 volume ratio was added to each well at 100 μL/well to detect the simultaneously binding activity of the trispecific antibodies to VEGF and PD-1 after binding to cell surface CTLA-4. […] After washing the plate three times with FACS buffer, 100 μL/well of PBS solution was added to resuspend the cells, and the fluorescence signal was detected on a flow cytometer. The binding activity was fitted using a four-parameter model, and the EC₅₀ value of each antibody was calculated.
For orientation: Flow cytometry measures light scatter and fluorescence of single cells or particles in a stream.

Assay [3] has as its target T3, Biotinylated Human VEGF165 (Acro, Catalog No. VE5-H82Q0) (human, UniProt P15692-4 27-191, biotinylated (site not stated)).
T3 construct: Bought protein; also called Biotinylated-hVEGF165; Biotin-hVEGF165
Put plainly: flow cytometry: antibody titrated on CHOK1-hCTLA4 cells, then mixture of hPD1-mFc and biotin-hVEGF165; PE streptavidin signal. The method, then:
as §1

Assay [4] has as its target T4, human CTLA-4 protein (Acro, Catalog No. CT4-H52H9) (human, UniProt P16410 36-161).
T4 construct: Bought protein
Put plainly: ELISA, plate coated with human CTLA-4 protein.

Assay [5] addresses T5, human PD-1 protein (Acro, Catalog No. PD1-H5221) (human, UniProt Q15116 25-167).
T5 construct: Bought protein; also called human PD1-his; not shown: his tag
Kind of assay: ELISA, plate coated with human PD-1 protein. Background: An ELISA detects its analyte on a solid surface through an enzyme-linked reagent.

Assay [6] addresses T6, human VEGF165-his protein (Acro, Catalog No. VE5-H5248) (human, UniProt P15692-4 27-191).
T6 construct: Bought protein; also called hVEGF165-His; VEGFA; not shown: his tag
Put plainly: ELISA, plate coated with human VEGF165-his. The method, then: ELISA was used to determine the activity of the trispecific antibodies binding to the PD-1 protein: 1 μg/mL human PD-1 protein (Acro, Catalog No.: PD1-H5221) was used to coat a high-adsorption 96-well ELISA plate and incubated at 4° C. overnight. On the next day, the plate was washed three times with PBST solution and blocked with 1% BSA-PBS solution at 37° C. for 1 hour. At the same time, 3-fold gradient dilutions of the antibody were prepared with 1% BSA-PBS solution, with a starting concentration of 10 nM. The antibodies of each gradient concentration were added to the blocked 96-well ELISA plate at 100 µL/well in triplicate and incubated at 37° C. for 1 hour. The plate was then washed three times with 0.05% PBST solution, and 100 μL/well of HRP-labeled secondary antibody (Sigma, Catalog No.: A0170) diluted at 1:5000 was added to the ELISA plate and incubated at 37° C. for 1 hour. The plate was washed three times with 0.05% PBST solution and developed with TMB. The absorbance of the 96-well ELISA plate at 450 nm was detected by an ELISA reader. The OD₄₅₀ value was fitted using a four-parameter model to calculate the EC₅₀ value of each antibody binding to PD-1.
The binding activity of the trispecific antibodies to VEGFA protein was detected by ELISA method as described in Section 2.1. The used human VEGF165-his protein was purchased from Acro, Catalog No.: VE5-H5248.

In assay [7] the target is T7, human PD-1 on the cell surface (human, UniProt Q15116 25-288).
T7 construct: whole, on cells; also called cell surface PD-1
Kind of assay: flow cytometry, 293T-hPD-1 cells, batch FACS#1. The method, then: After centrifugation at 300 g for 5 minutes, the supernatant was discarded. The antibodies were serially diluted 3-fold with FACS buffer to obtain two gradient series solution FACS #1 and FACS #2, with the starting concentration of 200 nM (Table 5, FACS #1) or 100 nM (Table 5, FACS #2, FIG. 2), respectively. Then 100 μL/well was added to a 96-well plate in triplicate, mixed, and incubated at 4° C. for 60 min. The plate was centrifuged and washed three times with FACS buffer. 100 μL/well of 1:800 diluted AF647-anti-hIgG(H+L) (Jackson, Catalog No.: 109-605-003) was added and incubated at 4° C. for 50 minutes. After washing the plate three times with FACS buffer, 100 μL/well of FACS buffer was added to resuspend the cells, and the fluorescence signal was detected on a flow cytometer (BECKMAN COULTER cytoFLEX). The binding activity was fitted using a four-parameter model to calculate the EC₅₀ value of each antibody binding to PD-1.

T5 sequence (Q15116 25-167 limits assumed): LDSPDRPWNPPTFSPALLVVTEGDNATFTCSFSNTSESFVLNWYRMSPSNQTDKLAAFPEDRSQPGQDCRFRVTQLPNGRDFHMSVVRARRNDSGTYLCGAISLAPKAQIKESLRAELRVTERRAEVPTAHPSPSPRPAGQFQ
T2 sequence (Q15116 25-167 limits assumed): as above
T4 sequence (P16410 36-161 limits assumed): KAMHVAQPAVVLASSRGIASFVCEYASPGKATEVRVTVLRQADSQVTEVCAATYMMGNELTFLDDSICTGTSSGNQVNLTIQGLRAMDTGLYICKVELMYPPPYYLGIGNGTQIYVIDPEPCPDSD
T7 sequence (Q15116 25-288): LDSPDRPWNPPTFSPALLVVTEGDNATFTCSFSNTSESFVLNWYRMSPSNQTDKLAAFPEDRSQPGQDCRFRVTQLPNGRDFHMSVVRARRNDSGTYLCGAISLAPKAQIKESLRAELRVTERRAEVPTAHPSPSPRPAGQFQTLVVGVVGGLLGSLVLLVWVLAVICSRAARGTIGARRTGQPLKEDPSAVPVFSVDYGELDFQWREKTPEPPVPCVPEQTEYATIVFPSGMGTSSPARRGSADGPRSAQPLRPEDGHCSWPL
T1 sequence (P16410 36-223): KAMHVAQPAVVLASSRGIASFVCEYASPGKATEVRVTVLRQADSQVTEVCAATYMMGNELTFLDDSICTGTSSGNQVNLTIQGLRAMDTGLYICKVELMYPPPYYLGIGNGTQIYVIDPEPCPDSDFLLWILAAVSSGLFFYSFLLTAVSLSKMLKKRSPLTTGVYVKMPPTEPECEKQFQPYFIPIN
T6 sequence (P15692 other isoform, or with tags, fused parts or gaps limits assumed): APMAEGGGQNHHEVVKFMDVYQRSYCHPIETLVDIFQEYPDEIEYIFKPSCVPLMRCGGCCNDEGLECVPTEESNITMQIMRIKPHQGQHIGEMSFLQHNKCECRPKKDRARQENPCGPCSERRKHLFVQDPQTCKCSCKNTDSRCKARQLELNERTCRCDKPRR
T3 sequence (P15692 other isoform, or with tags, fused parts or gaps limits assumed): as above

B1: HC010-F9 (trispecific antibody, human IgG4 S228P, kappa)
heavy: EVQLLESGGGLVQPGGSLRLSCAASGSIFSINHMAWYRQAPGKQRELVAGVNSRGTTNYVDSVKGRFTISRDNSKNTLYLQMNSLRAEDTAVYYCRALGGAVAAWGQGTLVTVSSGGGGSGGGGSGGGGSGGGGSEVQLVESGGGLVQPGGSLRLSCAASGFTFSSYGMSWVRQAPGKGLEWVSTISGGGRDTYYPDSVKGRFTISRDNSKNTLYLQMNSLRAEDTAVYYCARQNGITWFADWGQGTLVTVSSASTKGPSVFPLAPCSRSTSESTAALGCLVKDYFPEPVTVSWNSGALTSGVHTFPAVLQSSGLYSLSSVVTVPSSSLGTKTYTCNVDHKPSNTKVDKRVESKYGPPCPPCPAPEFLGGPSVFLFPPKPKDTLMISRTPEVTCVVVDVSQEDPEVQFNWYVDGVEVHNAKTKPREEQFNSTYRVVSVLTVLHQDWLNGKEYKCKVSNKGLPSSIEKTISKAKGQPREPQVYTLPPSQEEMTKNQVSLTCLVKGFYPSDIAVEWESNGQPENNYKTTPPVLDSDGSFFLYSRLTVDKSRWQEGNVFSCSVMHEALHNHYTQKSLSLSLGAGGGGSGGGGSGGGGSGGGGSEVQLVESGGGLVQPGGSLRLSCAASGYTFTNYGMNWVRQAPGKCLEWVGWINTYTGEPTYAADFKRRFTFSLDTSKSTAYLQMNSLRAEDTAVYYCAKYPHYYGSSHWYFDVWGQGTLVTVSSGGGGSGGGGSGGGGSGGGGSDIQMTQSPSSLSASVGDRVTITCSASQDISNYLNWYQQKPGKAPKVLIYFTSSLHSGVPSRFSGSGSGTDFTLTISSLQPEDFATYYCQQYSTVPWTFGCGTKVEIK
light: DIQMTQSPSSLSASVGDRVTITCRASESVDNYGISFMNWYQQKPGKAPKLLIYAASNQGSGVPSRFSGSGSGTDFTLTISSLQPEDFATYYCQQSKEVPWTFGGGTKVEIKRTVAAPSVFIFPPSDEQLKSGTASVVCLLNNFYPREAKVQWKVDNALQSGNSQESVTEQDSKDSTYSLSSTLTLSKADYEKHKVYACEVTHQGLSSPVTKSFNRGEC
notes: light: CQ1-3/1-11 VL-kappa; also called H010-F9
On to B1, for which, in assay [1], the IC50 was roughly 0.002 nM. Further, the EC50 came out at 1.53 nM in assay [2]; 1.38 nM in assay [3]; 0.031 nM in assay [4]; 0.082 nM in assay [5]; 0.111 nM in assay [6]; 3.53 nM in assay [7].

B2: HC010-F10 (trispecific antibody, human IgG4 S228P, kappa)
heavy: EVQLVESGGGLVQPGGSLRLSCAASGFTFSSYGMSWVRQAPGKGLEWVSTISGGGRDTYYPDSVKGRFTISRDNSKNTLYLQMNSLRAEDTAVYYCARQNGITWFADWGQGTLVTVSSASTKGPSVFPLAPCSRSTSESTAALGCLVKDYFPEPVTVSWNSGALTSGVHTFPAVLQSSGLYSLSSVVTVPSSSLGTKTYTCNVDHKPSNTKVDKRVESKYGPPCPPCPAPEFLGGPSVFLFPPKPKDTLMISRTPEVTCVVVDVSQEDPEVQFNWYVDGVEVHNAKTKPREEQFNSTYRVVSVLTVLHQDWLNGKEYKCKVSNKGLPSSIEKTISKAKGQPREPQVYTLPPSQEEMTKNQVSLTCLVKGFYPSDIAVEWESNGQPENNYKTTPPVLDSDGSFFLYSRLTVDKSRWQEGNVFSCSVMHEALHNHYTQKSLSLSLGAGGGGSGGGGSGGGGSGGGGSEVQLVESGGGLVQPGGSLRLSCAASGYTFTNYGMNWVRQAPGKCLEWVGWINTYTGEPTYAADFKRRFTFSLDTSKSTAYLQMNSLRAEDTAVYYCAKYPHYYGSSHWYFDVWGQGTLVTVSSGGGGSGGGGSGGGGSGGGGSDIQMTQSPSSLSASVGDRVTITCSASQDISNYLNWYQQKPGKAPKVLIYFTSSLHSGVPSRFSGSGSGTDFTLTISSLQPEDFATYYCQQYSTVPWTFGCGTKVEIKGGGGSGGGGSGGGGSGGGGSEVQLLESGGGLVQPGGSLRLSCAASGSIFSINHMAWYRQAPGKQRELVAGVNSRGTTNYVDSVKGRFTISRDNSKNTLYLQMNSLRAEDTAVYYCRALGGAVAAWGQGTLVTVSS
light: B1 light
notes: light: CQ1-3/1-11 VL-kappa; also called H010-F10
B2 came in with an IC50 in assay [1] of 0.056 nM. The half-maximal effective concentration (EC50) in assay [2] was 2.73 nM; in assay [3] it was 1.37 nM; in assay [4] it was 0.093 nM; in assay [5], 0.093 nM; in assay [6] it was 0.121 nM; in assay [7], 5.77 nM.
